Experimental data taken from patent publication US11230591.

Tests used:
[1] = target: recombinant pentameric gH complex (Towne strain) (human cytomegalovirus, Towne strain) (UniProt P17176); assay: BLI competition on His-pentamer; competitor (antibody 2): 57.4
[2] = target: recombinant pentameric gH complex (Towne strain) (human cytomegalovirus, Towne strain) (UniProt P17176); assay: BLI competition on His-pentamer; competitor (antibody 2): 1-85
[3] = target: recombinant pentameric gH complex (Towne strain) (human cytomegalovirus, Towne strain) (UniProt P17176); assay: BLI competition on His-pentamer; competitor (antibody 2): 2-25
CMV virions = assay: virion ELISA
[4] = target: recombinant pentameric gH complex (Towne strain) (human cytomegalovirus, Towne strain) (UniProt P17176); assay: BLI competition on His-pentamer; competitor (antibody 2): 324.4
[5] = target: recombinant pentameric gH complex (Towne strain) (human cytomegalovirus, Towne strain) (UniProt P17176); assay: BLI competition on His-pentamer; competitor (antibody 2): 270.7
[6] = target: recombinant pentameric gH complex (Towne strain) (human cytomegalovirus, Towne strain) (UniProt P17176); assay: BLI competition on His-pentamer; competitor (antibody 2): 1-150
[7] = target: pentameric gH complex on infectious CMV (neutralization assays) (human cytomegalovirus); assay: cell-based or functional assay
[8] = target: recombinant pentameric gH complex (Towne strain) (human cytomegalovirus, Towne strain) (UniProt P17176); assay: BLI competition on His-pentamer; competitor (antibody 2): 2-18
[9] = target: recombinant pentameric gH complex (Towne strain) (human cytomegalovirus, Towne strain) (UniProt P17176); assay: BLI competition on His-pentamer; competitor (antibody 2): 70.7
[10] = target: recombinant pentameric gH complex (Towne strain) (human cytomegalovirus, Towne strain) (UniProt P17176); assay: BLI competition on His-pentamer; competitor (antibody 2): 3-16
[11] = target: recombinant pentameric gH complex (Towne strain) (human cytomegalovirus, Towne strain) (UniProt P17176); assay: BLI competition on His-pentamer; competitor (antibody 2): 1-32
[12] = target: recombinant pentameric gH complex (Towne strain) (human cytomegalovirus, Towne strain) (UniProt P17176); assay: BLI competition on His-pentamer; competitor (antibody 2): 316.2
[13] = target: recombinant pentameric gH complex (Towne strain) (human cytomegalovirus, Towne strain) (UniProt P17176); assay: BLI competition on His-pentamer; competitor (antibody 2): 3-7
[14] = target: recombinant pentameric gH complex (Towne strain) (human cytomegalovirus, Towne strain) (UniProt P17176); assay: BLI competition on His-pentamer; competitor (antibody 2): 1-103
[15] = target: recombinant pentameric gH complex (Towne strain) (human cytomegalovirus, Towne strain) (UniProt P17176); assay: BLI competition on His-pentamer; competitor (antibody 2): 3-15
[16] = target: recombinant pentameric gH complex (Towne strain) (human cytomegalovirus, Towne strain) (UniProt P17176); assay: BLI competition on His-pentamer; competitor (antibody 2): 124.4
[17] = target: recombinant pentameric gH complex (Towne strain) (human cytomegalovirus, Towne strain) (UniProt P17176); assay: BLI competition on His-pentamer; competitor (antibody 2): 276.1

Sequence of recombinant pentameric gH complex (Towne strain) (human cytomegalovirus, Towne strain) (P17176 30-715, one chain of several): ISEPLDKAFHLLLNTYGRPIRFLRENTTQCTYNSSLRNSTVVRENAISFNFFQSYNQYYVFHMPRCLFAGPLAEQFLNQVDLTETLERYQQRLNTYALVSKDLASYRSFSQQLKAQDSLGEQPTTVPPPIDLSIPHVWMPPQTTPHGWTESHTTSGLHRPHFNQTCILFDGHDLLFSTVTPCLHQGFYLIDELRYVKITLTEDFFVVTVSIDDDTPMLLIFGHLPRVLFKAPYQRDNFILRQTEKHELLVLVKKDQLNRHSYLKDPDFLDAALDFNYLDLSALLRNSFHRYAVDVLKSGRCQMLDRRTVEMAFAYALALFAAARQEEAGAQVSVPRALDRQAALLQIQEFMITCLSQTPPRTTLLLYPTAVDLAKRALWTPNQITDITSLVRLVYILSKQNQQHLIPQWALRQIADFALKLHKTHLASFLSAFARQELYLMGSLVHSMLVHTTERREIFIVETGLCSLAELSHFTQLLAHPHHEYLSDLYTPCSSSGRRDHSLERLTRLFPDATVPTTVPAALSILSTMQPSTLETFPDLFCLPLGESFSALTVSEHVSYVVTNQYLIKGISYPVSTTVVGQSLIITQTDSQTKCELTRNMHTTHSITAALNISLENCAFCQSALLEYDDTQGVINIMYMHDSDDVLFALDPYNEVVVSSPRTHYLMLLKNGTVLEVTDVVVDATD

B1: 2-18 (antibody, V domains shown)
VH: EVQLVQSGGGLVQPGGSLRVSCAASGFSFSDHDMDWVRQAPGKGFEWVGRSRNKDYSSTTEYAASVRGRFTISRHTSEDLLYLELNTVKTEDTAVYFCARGPHHSDRSGYYGGTFDIWGQGTMVTVSS
VL: DIQMTQSPSSVSASVGDRVIITCRASQGISSWLAWYQQKPGRAPRLLIYDASTLESGVPSRFSGRGSGTEFTLTINSLQPEDFATYYCQQGNMFPLTFGGGTKVEIK
Pair-wise inhibition (%) [1]: 8% | Pair-wise inhibition (%) [2]: 10% | Pair-wise inhibition (%) [3]: 117% | EC50 (CMV virions): 90 ng/mL | Pair-wise inhibition (%) [4]: -1% | Pair-wise inhibition (%) [5]: -6% | Pair-wise inhibition (%) [6]: 12% | EC50 Neutralizing [7]: 0.9 ng/mL | IC50 in ARPE-19 [7]: 0.18 ng/mL | Pair-wise inhibition (%) [8]: 97% | Pair-wise inhibition (%) [9]: 6% | Pair-wise inhibition (%) [10]: 17% | Pair-wise inhibition (%) [11]: -1% | Pair-wise inhibition (%) [12]: 3% | Pair-wise inhibition (%) [13]: 16% | Pair-wise inhibition (%) [14]: 8% | Pair-wise inhibition (%) [15]: 15% | Pair-wise inhibition (%) [16]: -11% | Pair-wise inhibition (%) [17]: -31%

B2: 1-103 (antibody, V domains shown)
VH: QLQLQESGPGLVKPSETLSLTCSVSGDAISGSNYYWGWIRQPPGKGLQWIGSIYHTGSTFYNPSFSSRVTLSVDTSKNQFSLKLISVNAADTAVYYCARRIRGYSGTYDWGQGTLVTVSS
VL: DIQLTQSPSFLSASVGDRVTITCRASQDISSYVAWYQQKPGNAPKLLISSASTLPSGVPSRFSGSRSGTDFTLTISSLQPEDFATYYCQQLNNFGPGTTVDIK
Pair-wise inhibition (%) [1]: -4% | Pair-wise inhibition (%) [2]: 6% | Pair-wise inhibition (%) [3]: -20% | EC50 (CMV virions): 200 ng/mL | Pair-wise inhibition (%) [4]: -19% | Pair-wise inhibition (%) [5]: -35% | Pair-wise inhibition (%) [6]: -49% | EC50 Neutralizing [7]: 4 ng/mL | IC50 in ARPE-19 [7]: 0.88 ng/mL | Pair-wise inhibition (%) [8]: -10% | Pair-wise inhibition (%) [9]: -31% | Pair-wise inhibition (%) [10]: -38% | Pair-wise inhibition (%) [11]: -12% | Pair-wise inhibition (%) [12]: -28% | Pair-wise inhibition (%) [13]: -12% | Pair-wise inhibition (%) [14]: 89% | Pair-wise inhibition (%) [15]: -7% | Pair-wise inhibition (%) [16]: -22% | Pair-wise inhibition (%) [17]: -2%
